Target: T1, T4moD (UniProt Q00459 2-103)
T1 construct: also called 11.6 kDa effector protein of the toluene-4-monooxygenase complex
T1 sequence: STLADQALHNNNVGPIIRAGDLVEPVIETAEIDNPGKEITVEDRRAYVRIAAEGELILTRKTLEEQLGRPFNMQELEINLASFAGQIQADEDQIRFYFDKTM
Experiment: fluorescence anisotropy titration of 0.97 nM apo-fACP with T4moD

B1: apo-fACP (other)
chain: STIEERVKKIIGEQLGVKQEEVTNNASFVEDLGADSLDTVELVMALEEEFDTEIPDEEAEKITTVQAAIDYINGHQA
notes: mature; also called fACP (apo form, lacking phosphopantetheine)
Q: Does B1 bind?
A: Result: no binding
